Laboratory results: patent publication US20230049732A1 (UNIVERSITY OF LOUISVILLE RESEARCH FOUNDATION, published 2023)
Where a chain is given by its changes, count along the chain named.

T1: HPV16 VLPs (human papillomavirus type 16, UniProt P03101 1-505)
T1 construct: Specificity control; also called human papillomavirus VLPs
T1 sequence: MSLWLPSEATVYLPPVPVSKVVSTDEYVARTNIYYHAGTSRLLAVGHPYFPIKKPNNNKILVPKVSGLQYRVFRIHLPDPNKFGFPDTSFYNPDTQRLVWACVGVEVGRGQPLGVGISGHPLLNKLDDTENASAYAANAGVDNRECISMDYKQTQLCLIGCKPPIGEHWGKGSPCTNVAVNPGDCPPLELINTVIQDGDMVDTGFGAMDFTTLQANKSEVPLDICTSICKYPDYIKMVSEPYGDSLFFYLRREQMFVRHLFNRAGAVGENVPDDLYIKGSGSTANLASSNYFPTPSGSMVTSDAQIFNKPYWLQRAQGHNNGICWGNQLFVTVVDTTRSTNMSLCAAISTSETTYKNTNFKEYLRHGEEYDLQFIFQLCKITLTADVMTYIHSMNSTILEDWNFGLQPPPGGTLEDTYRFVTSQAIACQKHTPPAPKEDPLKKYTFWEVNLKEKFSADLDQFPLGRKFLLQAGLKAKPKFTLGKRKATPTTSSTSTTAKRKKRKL

T2: wtVLPs of parvovirus B19 genotype 1 (VP2 only) (parvovirus B19 genotype 1, UniProt P07299 228-781)
T2 construct: Intact virus-like particles self-assembled from VP2 alone, made in Sf9 cells with baculovirus; also called B19V genotype 1; Prototype Q399QYTDQ404
T2 sequence: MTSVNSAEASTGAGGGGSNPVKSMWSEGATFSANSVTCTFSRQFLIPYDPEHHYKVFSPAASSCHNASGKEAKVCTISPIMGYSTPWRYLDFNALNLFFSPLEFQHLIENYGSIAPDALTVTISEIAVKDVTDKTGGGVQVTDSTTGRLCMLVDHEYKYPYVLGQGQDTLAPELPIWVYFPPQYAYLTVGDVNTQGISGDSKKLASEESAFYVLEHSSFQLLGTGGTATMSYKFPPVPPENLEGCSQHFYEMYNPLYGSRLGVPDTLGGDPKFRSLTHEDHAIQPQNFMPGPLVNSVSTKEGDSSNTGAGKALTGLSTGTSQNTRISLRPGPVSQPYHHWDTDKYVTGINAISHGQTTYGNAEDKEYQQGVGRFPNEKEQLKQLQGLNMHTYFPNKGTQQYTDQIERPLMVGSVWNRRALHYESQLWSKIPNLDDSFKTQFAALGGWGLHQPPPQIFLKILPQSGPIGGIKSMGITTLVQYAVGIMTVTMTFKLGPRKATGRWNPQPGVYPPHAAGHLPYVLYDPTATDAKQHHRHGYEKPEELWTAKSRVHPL

T3: F401-VLPs of parvovirus B19 (parvovirus B19 genotype 1 (mutated), UniProt P07299 228-781)
T3 construct: also called F401-B19V; construct A
T3 chain: T2 sequence with Y401F

T4: KEYA368A369-VLPs of B19V (parvovirus B19 genotype 1 (mutated), UniProt P07299 228-781)
T4 construct: also called construct D
T4 chain: T2 sequence with Q368A, Q369A

B1: MAb #25 (antibody, V domains shown)
VH: QVQLQQPGAELVRPGASVKLSCKASGYTFTNYWMHWVKQRPEQGLEWIGRIDPYDSETHYNQKFKDKAILTVDTSSNTAYMQLSSLTSEDSAVYYCTSYYYGSNYVWHFDVWGAGTTVTVSS
VL: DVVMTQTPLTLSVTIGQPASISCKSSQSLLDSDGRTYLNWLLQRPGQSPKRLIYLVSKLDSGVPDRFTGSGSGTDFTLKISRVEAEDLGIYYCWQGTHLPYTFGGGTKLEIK
notes: Murine hybridoma antibody, supernatant; also called antibody 25
B2: MAb #91 (antibody, V domains shown)
VH: EVQLQQSGPELVKPGASVKISCKASGYSFTDYFMNWVKQSHGKSLEWIGRINPYNGDSFYNQNFRGSVTLTVDKSSGTAHMELLSLTSEDSTVYYCGAYRYDGYAMDYWGQGTSVTVSS
VL: DVVMTQTPLSLPVSLGDQASISCRSSQSLVHSDGNTYLHWYLQKPGQSPKLLIYKVSNRFSGVPDRFSGSGSGTDFTLKISRVEAEDLGVYFCSQSTHVPFTFGSGTKLEIK
notes: Murine hybridoma antibody, supernatant; also called antibody 91

Assays:
[1] = target: T1, HPV16 VLPs; assay: ELISA, VLPs coated
[2] = target: T1, HPV16 VLPs; assay: ELISA, intact VLPs coated, hybridoma supernatant
[3] = target: T2, wtVLPs of parvovirus B19 genotype 1 …; assay: ELISA, intact VLPs coated, hybridoma supernatant
[4] = target: T3, F401-VLPs of parvovirus B19; assay: ELISA, intact VLPs coated, hybridoma supernatant
[5] = target: T4, KEYA368A369-VLPs of B19V; assay: ELISA, intact VLPs coated, hybridoma supernatant

Binder | binding result [1] | ELISA absorbance (405 nm) [2] | ELISA absorbance (405 nm) [3] | ELISA absorbance (405 nm) [4] | ELISA absorbance (405 nm) [5]
B1 | no binding | 0.009 | 2.86 | 3.82 | 2.79
B2 | no binding | 0.005 | 3.72 | 3.01 | 2.59
